Experimental findings from US20250152746A1, “BASE EDITING OF ANGPTL3 AND METHODS OF USING SAME FOR TREATMENT OF DISEASE” (Verve Therapeutics, Inc., priority 2020, published 2025) are described below.

In the oligonucleotide strings, read from the 5' end, every base follows the letter of its sugar. An asterisk marks phosphorothioate; unmarked linkages are phosphodiester. Other units and linkages are bracketed, terminal groups are in braces. A string of capitals states the bases alone. m = 2'-O-methyl; r = 2'-OH (RNA)

Data set [1] deals with PCSK9 gene. Briefly: PCSK9 gRNA/SpCas9 editing in primary cynomolgus hepatocytes (Tables 2, 22). The conditions noted are these: SpCas9 mRNA MS002 1:1 by weight; for Cyno Primary Hepatocyte Editing % 100: 100 ng/RNA/mL; for Cyno Primary Hepatocyte Editing % 500: 500 ng/RNA/mL; for Cyno Primary Hepatocyte Editing % 2500: 2500 ng/RNA/mL. In kind it is cell-based, cynomolgus monkey.

For data set [2], the system named is PCSK9 gene. Description: PCSK9 gRNA/SpCas9 editing in primary human hepatocytes (Tables 2, 4). In kind it is cell-based. The conditions noted are these: SpCas9 mRNA MS002 1:1 by weight; for Human Primary Hepatocyte Editing % 100: 100 ng/RNA/mL; for Human Primary Hepatocyte Editing % 500: 500 ng/RNA/mL; for Human Primary Hepatocyte Editing % 2500: 2500 ng/RNA/mL. The gist of the method:
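Primary human hepatocytes co-transfected with PCSK9 gRNA plus SpCas9 mRNA (1:1 by weight) at 2500, 500 or 100 ng RNA/mL, or 2500–250 ng/mL for tracr-modified guides. Editing at the target site read by amplicon next-generation sequencing of extracted genomic DNA.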

B1: GA161: PCSK9 gRNA; protospacer GGACGAGGACGGCGACTACG (SEQ ID NO: 155) (nucleic acid)
guide: mG*mG*mA*rCrGrArGrGrArCrGrGrCrGrArCrUrArCrGrGrUrUrUrUrArGrArGrCrUrArGrArArArUrArGrCrArArGrUrUrArArArArUrArArGrGrCrUrArGrUrCrCrGrUrUrArUrCrArArCrUrUrGrArArArArArGrUrGrGrCrArCrCrGrArGrUrCrGrGrUrGrCrU*mU*mU*mU
As to B1, in the data set with PCSK9 gene [1], the “Cyno Primary Hepatocyte Editing % 100” value stood at 4.52%, the “Cyno Primary Hepatocyte Editing % 500” value is 14.98% and the “Cyno Primary Hepatocyte Editing % 2500” value stood at 48.24%. Besides, in the data set with PCSK9 gene [2], the “Human Primary Hepatocyte Editing % 100” value is 3.65%, the “Human Primary Hepatocyte Editing % 500” value is given as 8.74% and the “Human Primary Hepatocyte Editing % 2500” value turned out to be 35.08%.

B2: GA229: PCSK9 gRNA; protospacer GTCGTGCTGGTCACCGCTGC (SEQ ID NO: 223) (nucleic acid)
guide: GUCGUGCUGGUCACCGCUGCGUUUUAGAGCUAGAAAUAGCAAGUUAAAAUAAGGCUAGUCCGUUAUCAACUUGAAAAAGUGGCACCGAGUCGGUGCUUUU
modifications: sugars from the 5' end m3 r94 m3, linkages s3 o93 s3 (s phosphorothioate, o phosphodiester), T or U not given here
Regarding B2, in the data set with PCSK9 gene [1], the “Cyno Primary Hepatocyte Editing % 100” value worked out at 0.75%, the “Cyno Primary Hepatocyte Editing % 500” value turned out to be 5.39% and the “Cyno Primary Hepatocyte Editing % 2500” value worked out at 34.28%. In the data set on PCSK9 gene [2], the “Human Primary Hepatocyte Editing % 100” value was found to be 0.47%, the “Human Primary Hepatocyte Editing % 500” value turned out to be 6.85% and the “Human Primary Hepatocyte Editing % 2500” value came to 30.41%.

B3: GA224: PCSK9 gRNA; protospacer GGCCGCTGACCACCCCTGCC (SEQ ID NO: 218) (nucleic acid)
guide: GGCCGCUGACCACCCCUGCCGUUUUAGAGCUAGAAAUAGCAAGUUAAAAUAAGGCUAGUCCGUUAUCAACUUGAAAAAGUGGCACCGAGUCGGUGCUUUU
modifications: sugars from the 5' end m3 r94 m3, linkages s3 o93 s3 (s phosphorothioate, o phosphodiester), T or U not given here
Turning to B3, in the data set with PCSK9 gene [1], the “Cyno Primary Hepatocyte Editing % 100” value is given as 2.61%, the “Cyno Primary Hepatocyte Editing % 500” value is recorded as 12.34% and the “Cyno Primary Hepatocyte Editing % 2500” value is 47.5%. In the data set on PCSK9 gene [2], the “Human Primary Hepatocyte Editing % 100” value was determined as 1.01%, the “Human Primary Hepatocyte Editing % 500” value amounted to 2.19% and the “Human Primary Hepatocyte Editing % 2500” value is listed as 13.02%.

B4: GA225: PCSK9 gRNA; protospacer GGCATCGTCCCGGAAGTTGC (SEQ ID NO: 219) (nucleic acid)
guide: GGCAUCGUCCCGGAAGUUGCGUUUUAGAGCUAGAAAUAGCAAGUUAAAAUAAGGCUAGUCCGUUAUCAACUUGAAAAAGUGGCACCGAGUCGGUGCUUUU
modifications: sugars from the 5' end m3 r94 m3, linkages s3 o93 s3 (s phosphorothioate, o phosphodiester), T or U not given here
With B4, in the data set on PCSK9 gene [1], the “Cyno Primary Hepatocyte Editing % 100” value was found to be 2.03%, the “Cyno Primary Hepatocyte Editing % 500” value was determined as 3.11% and the “Cyno Primary Hepatocyte Editing % 2500” value is 8.57%. In the data set with PCSK9 gene [2], the “Human Primary Hepatocyte Editing % 100” value turned out to be 0.89%, the “Human Primary Hepatocyte Editing % 500” value is listed as 6.39% and the “Human Primary Hepatocyte Editing % 2500” value amounted to 18.82%.

B5: GA223: PCSK9 gRNA; protospacer GCTGACCACCCCTGCCAGGT (SEQ ID NO: 217) (nucleic acid)
guide: GCUGACCACCCCUGCCAGGUGUUUUAGAGCUAGAAAUAGCAAGUUAAAAUAAGGCUAGUCCGUUAUCAACUUGAAAAAGUGGCACCGAGUCGGUGCUUUU
modifications: sugars from the 5' end m3 r94 m3, linkages s3 o93 s3 (s phosphorothioate, o phosphodiester), T or U not given here
For the molecule B5, in the data set on PCSK9 gene [1], the “Cyno Primary Hepatocyte Editing % 100” value is on record as 3.46%, the “Cyno Primary Hepatocyte Editing % 500” value stood at 21.4% and the “Cyno Primary Hepatocyte Editing % 2500” value is 57.58%. Also, in the data set with PCSK9 gene [2], the “Human Primary Hepatocyte Editing % 100” value is 1.44%, the “Human Primary Hepatocyte Editing % 500” value came out at 7.28% and the “Human Primary Hepatocyte Editing % 2500” value was found to be 17.5%.

B6: GA236: PCSK9 gRNA; protospacer AGCCCTCGCCAGGCGCTGGC (SEQ ID NO: 229) (nucleic acid)
guide: AGCCCUCGCCAGGCGCUGGCGUUUUAGAGCUAGAAAUAGCAAGUUAAAAUAAGGCUAGUCCGUUAUCAACUUGAAAAAGUGGCACCGAGUCGGUGCUUUU
modifications: sugars from the 5' end m3 r94 m3, linkages s3 o93 s3 (s phosphorothioate, o phosphodiester), T or U not given here
For the molecule B6, in the data set with PCSK9 gene [1], the “Cyno Primary Hepatocyte Editing % 100” value turned out to be 2.31%, the “Cyno Primary Hepatocyte Editing % 500” value is given as 11.62% and the “Cyno Primary Hepatocyte Editing % 2500” value was found to be 37.44%. Also, in the data set on PCSK9 gene [2], the “Human Primary Hepatocyte Editing % 100” value worked out at 6.92%, the “Human Primary Hepatocyte Editing % 500” value was 3.13% and the “Human Primary Hepatocyte Editing % 2500” value is recorded as 22.41%.

B7: GA233: PCSK9 gRNA; protospacer GCGGCTGTACCCACCCGCCA (SEQ ID NO: 227) (nucleic acid)
guide: GCGGCUGUACCCACCCGCCAGUUUUAGAGCUAGAAAUAGCAAGUUAAAAUAAGGCUAGUCCGUUAUCAACUUGAAAAAGUGGCACCGAGUCGGUGCUUUU
modifications: sugars from the 5' end m3 r94 m3, linkages s3 o93 s3 (s phosphorothioate, o phosphodiester), T or U not given here
In the case of B7, in the data set on PCSK9 gene [1], the “Cyno Primary Hepatocyte Editing % 100” value came to 2.38%, the “Cyno Primary Hepatocyte Editing % 500” value was found to be 10.84% and the “Cyno Primary Hepatocyte Editing % 2500” value turned out to be 37.8%. Further, in the data set on PCSK9 gene [2], the “Human Primary Hepatocyte Editing % 100” value is listed as 3.08%, the “Human Primary Hepatocyte Editing % 500” value is recorded as 5.39% and the “Human Primary Hepatocyte Editing % 2500” value is 19.97%.

B8: GA230: PCSK9 gRNA; protospacer AGTAGAGGCAGGCATCGTCC (SEQ ID NO: 224) (nucleic acid)
guide: AGUAGAGGCAGGCAUCGUCCGUUUUAGAGCUAGAAAUAGCAAGUUAAAAUAAGGCUAGUCCGUUAUCAACUUGAAAAAGUGGCACCGAGUCGGUGCUUUU
modifications: sugars from the 5' end m3 r94 m3, linkages s3 o93 s3 (s phosphorothioate, o phosphodiester), T or U not given here
Consider B8, for which the “Cyno Primary Hepatocyte Editing % 2500” value with PCSK9 gene [1] came out at 35.86%. Besides, in the data set on PCSK9 gene [2], the “Human Primary Hepatocyte Editing % 500” value is recorded as 12.83% and the “Human Primary Hepatocyte Editing % 2500” value was 29.31%.

B9: GA227: PCSK9 gRNA; protospacer GTCCCGGAAGTTGCCGGCAG (SEQ ID NO: 221) (nucleic acid)
guide: GUCCCGGAAGUUGCCGGCAGGUUUUAGAGCUAGAAAUAGCAAGUUAAAAUAAGGCUAGUCCGUUAUCAACUUGAAAAAGUGGCACCGAGUCGGUGCUUUU
modifications: sugars from the 5' end m3 r94 m3, linkages s3 o93 s3 (s phosphorothioate, o phosphodiester), T or U not given here
Consider B9, for which, in the data set with PCSK9 gene [1], the “Cyno Primary Hepatocyte Editing % 100” value is reported as 0.56%, the “Cyno Primary Hepatocyte Editing % 500” value was determined as 4.58% and the “Cyno Primary Hepatocyte Editing % 2500” value was determined as 32.41%. In the data set on PCSK9 gene [2], the “Human Primary Hepatocyte Editing % 100” value is 0.02%, the “Human Primary Hepatocyte Editing % 500” value is 8.29% and the “Human Primary Hepatocyte Editing % 2500” value is 32.09%.

B10: GA160: PCSK9 gRNA; protospacer GCCTTGCGTTCCGAGGAGGA (SEQ ID NO: 154) (nucleic acid)
guide: GCCUUGCGUUCCGAGGAGGAGUUUUAGAGCUAGAAAUAGCAAGUUAAAAUAAGGCUAGUCCGUUAUCAACUUGAAAAAGUGGCACCGAGUCGGUGCUUUU
modifications: sugars from the 5' end m3 r94 m3, linkages s3 o93 s3 (s phosphorothioate, o phosphodiester), T or U not given here
For B10, in the data set on PCSK9 gene [1], the “Cyno Primary Hepatocyte Editing % 100” value is 1.38%, the “Cyno Primary Hepatocyte Editing % 500” value is 6.60% and the “Cyno Primary Hepatocyte Editing % 2500” value is 23.15%. In addition, in the data set on PCSK9 gene [2], the “Human Primary Hepatocyte Editing % 100” value is listed as 1.19%, the “Human Primary Hepatocyte Editing % 500” value came to 5.58% and the “Human Primary Hepatocyte Editing % 2500” value is 23.3%.

B11: GA222: PCSK9 gRNA; protospacer TGGCAGGGGTGGTCAGCGGC (SEQ ID NO: 216) (nucleic acid)
guide: UGGCAGGGGUGGUCAGCGGCGUUUUAGAGCUAGAAAUAGCAAGUUAAAAUAAGGCUAGUCCGUUAUCAACUUGAAAAAGUGGCACCGAGUCGGUGCUUUU
modifications: sugars from the 5' end m3 r94 m3, linkages s3 o93 s3 (s phosphorothioate, o phosphodiester), T or U not given here
For the molecule B11, in the data set on PCSK9 gene [1], the “Cyno Primary Hepatocyte Editing % 100” value was determined as 0.88%, the “Cyno Primary Hepatocyte Editing % 500” value is on record as 3.32% and the “Cyno Primary Hepatocyte Editing % 2500” value is given as 16.7%. Also, in the data set on PCSK9 gene [2], the “Human Primary Hepatocyte Editing % 100” value is given as 0.5%, the “Human Primary Hepatocyte Editing % 500” value is listed as 0.66% and the “Human Primary Hepatocyte Editing % 2500” value was determined as 2.04%.

B12: GA228: PCSK9 gRNA; protospacer CGGCTGTACCCACCCGCCAG (SEQ ID NO: 222) (nucleic acid)
guide: CGGCUGUACCCACCCGCCAGGUUUUAGAGCUAGAAAUAGCAAGUUAAAAUAAGGCUAGUCCGUUAUCAACUUGAAAAAGUGGCACCGAGUCGGUGCUUUU
modifications: sugars from the 5' end m3 r94 m3, linkages s3 o93 s3 (s phosphorothioate, o phosphodiester), T or U not given here
On to B12, for which, in the data set on PCSK9 gene [1], the “Cyno Primary Hepatocyte Editing % 100” value is listed as 1.95%, the “Cyno Primary Hepatocyte Editing % 500” value stood at 7.89% and the “Cyno Primary Hepatocyte Editing % 2500” value is on record as 31.36%. Moreover, in the data set with PCSK9 gene [2], the “Human Primary Hepatocyte Editing % 100” value stood at 5.9%, the “Human Primary Hepatocyte Editing % 500” value came out at 10.96% and the “Human Primary Hepatocyte Editing % 2500” value is listed as 37.1%.

B13: GA234: PCSK9 gRNA; protospacer CGCCTGCCAGCGCCTGGCGA (SEQ ID NO: 252) (nucleic acid)
guide: mC*mG*mC*rCrUrGrCrCrArGrCrGrCrCrUrGrGrCrGrArGrUrUrUrUrArGrArGrCrUrArGrArArArUrArGrCrArArGrUrUrArArArArUrArArGrGrCrUrArGrUrCrCrGrUrUrArUrCrArArCrUrUrGrArArArArArGrUrGrGrCrArCrCrGrArGrUrCrGrGrUrGrCrU*mU*mU*mU
Consider B13, for which, in the data set with PCSK9 gene [1], the “Cyno Primary Hepatocyte Editing % 100” value is on record as 0.21%, the “Cyno Primary Hepatocyte Editing % 500” value is on record as 1.53% and the “Cyno Primary Hepatocyte Editing % 2500” value stood at 6.44%. For the same molecule, in the data set on PCSK9 gene [2], the “Human Primary Hepatocyte Editing % 100” value was 0.06%, the “Human Primary Hepatocyte Editing % 500” value amounted to 2.29% and the “Human Primary Hepatocyte Editing % 2500” value was 5.45%.
